Laboratory results from paper PMC11187062.
Several values for one entry are separate records, joined by “and”; a condition that tells them apart may be missing. Identical values can stand only once. Like-named read-outs stand apart in the source and are kept apart here.

What was measured:
[1] = molecular target: UHRF1 PHD finger PHD (Homo sapiens) (UniProt Q96T88); conditions: cited from earlier work
hPHD D334A/D337A (human) = hPHD D334A/D337A (human) (UniProt Q96T88); experiment: ITC; Microcal PEAQ-ITC, 293 K, 10 mM HEPES pH 7.5, 150 mM NaCl, 0.25 mM TCEP; one-site model; at least three independent titrations
[2] = molecular target: UHRF1 PHD finger PHD (Homo sapiens) (UniProt Q96T88); conditions: cited from earlier work; remark: listed apart in the source
[3] = molecular target: human UHRF1 PHD finger, residues 299-366, D334A/D337A (human) (UniProt Q96T88); experiment: ITC; Microcal PEAQ-ITC, 293 K, 10 mM HEPES pH 7.5, 150 mM NaCl, 0.25 mM TCEP, one-site model; which partner was titrated is not stated; single titrations and their means
[4] = molecular target: UHRF1 PHD finger PHD (Mus musculus) (UniProt Q8VDF2); conditions: cited from earlier work
[5] = molecular target: UHRF1 PHD finger PHD (Mus musculus) (UniProt Q8VDF2); conditions: cited from earlier work; remark: listed apart in the source

human UHRF1 PHD finger, residues 299-366, D334A/D337A (human), sequence (Q96T88 299-366 D334A/D337A): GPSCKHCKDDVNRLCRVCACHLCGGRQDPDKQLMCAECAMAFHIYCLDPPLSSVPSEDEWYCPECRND
UHRF1 PHD finger PHD (Mus musculus), sequence (Q8VDF2 301-374): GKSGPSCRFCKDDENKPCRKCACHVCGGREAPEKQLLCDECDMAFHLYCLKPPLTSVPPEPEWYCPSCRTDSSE
UHRF1 PHD finger PHD (Homo sapiens), sequence (Q96T88 307-369): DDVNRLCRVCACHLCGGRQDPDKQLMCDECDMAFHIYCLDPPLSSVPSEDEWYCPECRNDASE
DPPA3, sequence (Q8QZY3 whole entry): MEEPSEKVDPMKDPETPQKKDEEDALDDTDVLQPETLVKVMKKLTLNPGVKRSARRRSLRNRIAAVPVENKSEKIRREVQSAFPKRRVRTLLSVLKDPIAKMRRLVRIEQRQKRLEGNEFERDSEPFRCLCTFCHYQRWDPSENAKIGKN
hPHD D334A/D337A (human), sequence (Q96T88 299-366 D334A/D337A): as the sequence (Q96T88 299-366 D334A/D337A) above
PAF15 1-10, sequence (Q15004 whole entry, looked up, tested part not stated): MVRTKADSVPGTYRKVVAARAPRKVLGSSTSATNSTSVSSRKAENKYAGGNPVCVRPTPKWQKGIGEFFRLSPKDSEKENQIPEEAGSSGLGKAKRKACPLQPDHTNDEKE
PAF15, sequence (Q15004 whole entry): as the sequence (Q15004 whole entry, looked up, tested part not stated) above

## histone H3 1-15 (from UniProt P68431)
[1]
  Kd: 1.7 µM

## human DPPA3, residues 81–118 (recombinant) (domain or fragment)
hPHD D334A/D337A (human)
  Kd: > 115 µM

## PAF15 1-10 (from UniProt Q15004)
[2]
  Kd: 2.2 µM

## human DPPA3, residues 81-118 (domain or fragment)
[3]
  Kd: 114 µM and 91 µM and 139 µM

## PAF15 (from UniProt Q15004)
[4]
  Kd: 3.52 µM

## DPPA3 (from UniProt Q8QZY3)
[5]
  Kd: 0.0277 µM
